Data as given in the MegaScale stability set (Tsuboyama et al. 2023).

B1: 2M8U (parent)
chain: TKAQVIEAFKVFDRDGNGYVTVDYLRKVLNELGDMMPADEIEEMIYEADPQNSGYVQYETFVGMLFL

Variants of: B1
Assay: folding stability dG (cDNA display proteolysis); higher = more stable
Conditions: PBS, room temperature

Row | Variant | folding stability dG
1 | TKAQVIEAFKVCDRDGNGYVTVDYLRKVLNELGDMMPADEIEEMIYEADPQNSGYVQYETFVGMLFL | 3.15 kcal/mol
2 | TKAQVIEAFKVQDRDGNGYVTVDYLRKVLNELGDMMPADEIEEMIYEADPQNSGYVQYETFVGMLFL | 3.12 kcal/mol
3 | TKAQVIEAFKVLDRDGNGYVTVDYLRKVLNELGDMMPADEIEEMIYEADPQNSGYVQYETFVGMLFL | 3.08 kcal/mol
4 | TKAQVIEAFKVRDRDGNGYVTVDYLRKVLNELGDMMPADEIEEMIYEADPQNSGYVQYETFVGMLFL | 2.48 kcal/mol
5 | TKAQVIEAFKVKDRDGNGYVTVDYLRKVLNELGDMMPADEIEEMIYEADPQNSGYVQYETFVGMLFL | 2.54 kcal/mol
6 | TKAQVIEAFKVWDRDGNGYVTVDYLRKVLNELGDMMPADEIEEMIYEADPQNSGYVQYETFVGMLFL | 3.32 kcal/mol
7 | TKAQVIEAFKVGDRDGNGYVTVDYLRKVLNELGDMMPADEIEEMIYEADPQNSGYVQYETFVGMLFL | 3.5 kcal/mol
8 | TKAQVIEAFKVHDRDGNGYVTVDYLRKVLNELGDMMPADEIEEMIYEADPQNSGYVQYETFVGMLFL | 3.24 kcal/mol
9 | TKAQVIEAFKVTDRDGNGYVTVDYLRKVLNELGDMMPADEIEEMIYEADPQNSGYVQYETFVGMLFL | 2.39 kcal/mol
10 | TKAQVIEAFKVVDRDGNGYVTVDYLRKVLNELGDMMPADEIEEMIYEADPQNSGYVQYETFVGMLFL | 3.03 kcal/mol
11 | TKAQVIEAFKVEDRDGNGYVTVDYLRKVLNELGDMMPADEIEEMIYEADPQNSGYVQYETFVGMLFL | 3.15 kcal/mol
12 | TKAQVIEAFKVSDRDGNGYVTVDYLRKVLNELGDMMPADEIEEMIYEADPQNSGYVQYETFVGMLFL | 2.68 kcal/mol
13 | TKAQVIEAFKVDDRDGNGYVTVDYLRKVLNELGDMMPADEIEEMIYEADPQNSGYVQYETFVGMLFL | 2.69 kcal/mol
14 | TKAQVIEAFKVADRDGNGYVTVDYLRKVLNELGDMMPADEIEEMIYEADPQNSGYVQYETFVGMLFL | 3.36 kcal/mol
15 | TKAQVIEAFKVNDRDGNGYVTVDYLRKVLNELGDMMPADEIEEMIYEADPQNSGYVQYETFVGMLFL | 3.06 kcal/mol
16 | TKAQVIEAFKVMDRDGNGYVTVDYLRKVLNELGDMMPADEIEEMIYEADPQNSGYVQYETFVGMLFL | 3.33 kcal/mol
17 | TKAQVIEAFKVIDRDGNGYVTVDYLRKVLNELGDMMPADEIEEMIYEADPQNSGYVQYETFVGMLFL | 3.04 kcal/mol
18 | TKAQVIEAFKVPDRDGNGYVTVDYLRKVLNELGDMMPADEIEEMIYEADPQNSGYVQYETFVGMLFL | 1.89 kcal/mol
19 | TKAQVIEAFKVYDRDGNGYVTVDYLRKVLNELGDMMPADEIEEMIYEADPQNSGYVQYETFVGMLFL | 3.71 kcal/mol
20 | TKAQVIEAFVVFDRDGNGYVTVDYLRKVLNELGDMMPADEIEEMIYEADPQNSGYVQYETFVGMLFL | 3.17 kcal/mol
21 | TKAQVIEAFYVFDRDGNGYVTVDYLRKVLNELGDMMPADEIEEMIYEADPQNSGYVQYETFVGMLFL | 2.79 kcal/mol
22 | TKAQVIEAFSVFDRDGNGYVTVDYLRKVLNELGDMMPADEIEEMIYEADPQNSGYVQYETFVGMLFL | 2.86 kcal/mol
23 | TKAQVIEAFTVFDRDGNGYVTVDYLRKVLNELGDMMPADEIEEMIYEADPQNSGYVQYETFVGMLFL | 2.77 kcal/mol
24 | TKAQVIEAFRVFDRDGNGYVTVDYLRKVLNELGDMMPADEIEEMIYEADPQNSGYVQYETFVGMLFL | 3.46 kcal/mol
25 | TKAQVIEAFWVFDRDGNGYVTVDYLRKVLNELGDMMPADEIEEMIYEADPQNSGYVQYETFVGMLFL | 3.01 kcal/mol
26 | TKAQVIEAFKHFDRDGNGYVTVDYLRKVLNELGDMMPADEIEEMIYEADPQNSGYVQYETFVGMLFL | 3.32 kcal/mol
27 | TKAQVIEAFKLFDRDGNGYVTVDYLRKVLNELGDMMPADEIEEMIYEADPQNSGYVQYETFVGMLFL | 3.44 kcal/mol

Row | Variant | folding stability dG
28 | TKAQVIEAFKAFDRDGNGYVTVDYLRKVLNELGDMMPADEIEEMIYEADPQNSGYVQYETFVGMLFL | 3.77 kcal/mol
29 | TKAQVIEAFKWFDRDGNGYVTVDYLRKVLNELGDMMPADEIEEMIYEADPQNSGYVQYETFVGMLFL | 3.05 kcal/mol
30 | TKAQVIEAFKSFDRDGNGYVTVDYLRKVLNELGDMMPADEIEEMIYEADPQNSGYVQYETFVGMLFL | 3.56 kcal/mol
31 | TKAQVIEAFKFFDRDGNGYVTVDYLRKVLNELGDMMPADEIEEMIYEADPQNSGYVQYETFVGMLFL | 3.01 kcal/mol
32 | TKAQVIEAFKQFDRDGNGYVTVDYLRKVLNELGDMMPADEIEEMIYEADPQNSGYVQYETFVGMLFL | 3.65 kcal/mol
33 | TKAQVIEAFKNFDRDGNGYVTVDYLRKVLNELGDMMPADEIEEMIYEADPQNSGYVQYETFVGMLFL | 3.51 kcal/mol
34 | TKAQVIEAFKGFDRDGNGYVTVDYLRKVLNELGDMMPADEIEEMIYEADPQNSGYVQYETFVGMLFL | 3.28 kcal/mol
35 | TKAQVIEAFKCFDRDGNGYVTVDYLRKVLNELGDMMPADEIEEMIYEADPQNSGYVQYETFVGMLFL | 3.39 kcal/mol
36 | TKAQVIEAFKYFDRDGNGYVTVDYLRKVLNELGDMMPADEIEEMIYEADPQNSGYVQYETFVGMLFL | 3.07 kcal/mol
37 | TKAQVIEAFKTFDRDGNGYVTVDYLRKVLNELGDMMPADEIEEMIYEADPQNSGYVQYETFVGMLFL | 3.35 kcal/mol
38 | TKAQVIEAFKDFDRDGNGYVTVDYLRKVLNELGDMMPADEIEEMIYEADPQNSGYVQYETFVGMLFL | 3.13 kcal/mol
39 | TKAQVIEAFKIFDRDGNGYVTVDYLRKVLNELGDMMPADEIEEMIYEADPQNSGYVQYETFVGMLFL | 3.38 kcal/mol
40 | TKAQVIEAFKEFDRDGNGYVTVDYLRKVLNELGDMMPADEIEEMIYEADPQNSGYVQYETFVGMLFL | 3.52 kcal/mol
41 | TKAQVIEAFKPFDRDGNGYVTVDYLRKVLNELGDMMPADEIEEMIYEADPQNSGYVQYETFVGMLFL | 3.14 kcal/mol
42 | TKAQVIEAFKMFDRDGNGYVTVDYLRKVLNELGDMMPADEIEEMIYEADPQNSGYVQYETFVGMLFL | 3.24 kcal/mol
43 | TKAQVIEAFKKFDRDGNGYVTVDYLRKVLNELGDMMPADEIEEMIYEADPQNSGYVQYETFVGMLFL | 3.72 kcal/mol
44 | TKAQVIEAFKRFDRDGNGYVTVDYLRKVLNELGDMMPADEIEEMIYEADPQNSGYVQYETFVGMLFL | 3.63 kcal/mol
45 | TKAQVIEAFKVFLRDGNGYVTVDYLRKVLNELGDMMPADEIEEMIYEADPQNSGYVQYETFVGMLFL | 2.6 kcal/mol
46 | TKAQVIEAFKVFYRDGNGYVTVDYLRKVLNELGDMMPADEIEEMIYEADPQNSGYVQYETFVGMLFL | 2.29 kcal/mol
47 | TKAQVIEAFKVFKRDGNGYVTVDYLRKVLNELGDMMPADEIEEMIYEADPQNSGYVQYETFVGMLFL | 1.39 kcal/mol
48 | TKAQVIEAFKVFVRDGNGYVTVDYLRKVLNELGDMMPADEIEEMIYEADPQNSGYVQYETFVGMLFL | 2.3 kcal/mol
49 | TKAQVIEAFKVFSRDGNGYVTVDYLRKVLNELGDMMPADEIEEMIYEADPQNSGYVQYETFVGMLFL | 1.57 kcal/mol
50 | TKAQVIEAFKVFQRDGNGYVTVDYLRKVLNELGDMMPADEIEEMIYEADPQNSGYVQYETFVGMLFL | 1.87 kcal/mol
51 | TKAQVIEAFKVFERDGNGYVTVDYLRKVLNELGDMMPADEIEEMIYEADPQNSGYVQYETFVGMLFL | 2.11 kcal/mol
52 | TKAQVIEAFKVFMRDGNGYVTVDYLRKVLNELGDMMPADEIEEMIYEADPQNSGYVQYETFVGMLFL | 2.39 kcal/mol
53 | TKAQVIEAFKVFIRDGNGYVTVDYLRKVLNELGDMMPADEIEEMIYEADPQNSGYVQYETFVGMLFL | 2.4 kcal/mol
54 | TKAQVIEAFKVFNRDGNGYVTVDYLRKVLNELGDMMPADEIEEMIYEADPQNSGYVQYETFVGMLFL | 1.76 kcal/mol

Row | Variant | folding stability dG
55 | TKAQVIEAFKVFHRDGNGYVTVDYLRKVLNELGDMMPADEIEEMIYEADPQNSGYVQYETFVGMLFL | 1.95 kcal/mol
56 | TKAQVIEAFKVFTRDGNGYVTVDYLRKVLNELGDMMPADEIEEMIYEADPQNSGYVQYETFVGMLFL | 2.06 kcal/mol
57 | TKAQVIEAFKVFWRDGNGYVTVDYLRKVLNELGDMMPADEIEEMIYEADPQNSGYVQYETFVGMLFL | 2.7 kcal/mol
58 | TKAQVIEAFKVFPRDGNGYVTVDYLRKVLNELGDMMPADEIEEMIYEADPQNSGYVQYETFVGMLFL | 1.49 kcal/mol
59 | TKAQVIEAFKVFARDGNGYVTVDYLRKVLNELGDMMPADEIEEMIYEADPQNSGYVQYETFVGMLFL | 1.97 kcal/mol
60 | TKAQVIEAFKVFFRDGNGYVTVDYLRKVLNELGDMMPADEIEEMIYEADPQNSGYVQYETFVGMLFL | 2.65 kcal/mol
61 | TKAQVIEAFKVFCRDGNGYVTVDYLRKVLNELGDMMPADEIEEMIYEADPQNSGYVQYETFVGMLFL | 3.16 kcal/mol
62 | TKAQVIEAFKVFGRDGNGYVTVDYLRKVLNELGDMMPADEIEEMIYEADPQNSGYVQYETFVGMLFL | 1.79 kcal/mol
63 | TKAQVIEAFKVFRRDGNGYVTVDYLRKVLNELGDMMPADEIEEMIYEADPQNSGYVQYETFVGMLFL | 1.21 kcal/mol
64 | TKAQVIEAFKVFDSDGNGYVTVDYLRKVLNELGDMMPADEIEEMIYEADPQNSGYVQYETFVGMLFL | 3.58 kcal/mol
65 | TKAQVIEAFKVFDNDGNGYVTVDYLRKVLNELGDMMPADEIEEMIYEADPQNSGYVQYETFVGMLFL | 3.34 kcal/mol
66 | TKAQVIEAFKVFDPDGNGYVTVDYLRKVLNELGDMMPADEIEEMIYEADPQNSGYVQYETFVGMLFL | 3.5 kcal/mol
67 | TKAQVIEAFKVFDADGNGYVTVDYLRKVLNELGDMMPADEIEEMIYEADPQNSGYVQYETFVGMLFL | 3.65 kcal/mol
68 | TKAQVIEAFKVFDVDGNGYVTVDYLRKVLNELGDMMPADEIEEMIYEADPQNSGYVQYETFVGMLFL | 3.83 kcal/mol
69 | TKAQVIEAFKVFDCDGNGYVTVDYLRKVLNELGDMMPADEIEEMIYEADPQNSGYVQYETFVGMLFL | 3.42 kcal/mol
70 | TKAQVIEAFKVFDMDGNGYVTVDYLRKVLNELGDMMPADEIEEMIYEADPQNSGYVQYETFVGMLFL | 3.69 kcal/mol
71 | TKAQVIEAFKVFDHDGNGYVTVDYLRKVLNELGDMMPADEIEEMIYEADPQNSGYVQYETFVGMLFL | 3.68 kcal/mol
72 | TKAQVIEAFKVFDFDGNGYVTVDYLRKVLNELGDMMPADEIEEMIYEADPQNSGYVQYETFVGMLFL | 4.03 kcal/mol
73 | TKAQVIEAFKVFDKDGNGYVTVDYLRKVLNELGDMMPADEIEEMIYEADPQNSGYVQYETFVGMLFL | 3.55 kcal/mol
74 | TKAQVIEAFKVFDEDGNGYVTVDYLRKVLNELGDMMPADEIEEMIYEADPQNSGYVQYETFVGMLFL | 3.62 kcal/mol
75 | TKAQVIEAFKVFDIDGNGYVTVDYLRKVLNELGDMMPADEIEEMIYEADPQNSGYVQYETFVGMLFL | 3.77 kcal/mol
76 | TKAQVIEAFKVFDGDGNGYVTVDYLRKVLNELGDMMPADEIEEMIYEADPQNSGYVQYETFVGMLFL | 3.35 kcal/mol
77 | TKAQVIEAFKVFDDDGNGYVTVDYLRKVLNELGDMMPADEIEEMIYEADPQNSGYVQYETFVGMLFL | 3.5 kcal/mol
78 | TKAQVIEAFKVFDQDGNGYVTVDYLRKVLNELGDMMPADEIEEMIYEADPQNSGYVQYETFVGMLFL | 3.49 kcal/mol
79 | TKAQVIEAFKVFDTDGNGYVTVDYLRKVLNELGDMMPADEIEEMIYEADPQNSGYVQYETFVGMLFL | 3.81 kcal/mol
80 | TKAQVIEAFKVFDLDGNGYVTVDYLRKVLNELGDMMPADEIEEMIYEADPQNSGYVQYETFVGMLFL | 3.75 kcal/mol
